From US20180155451A1 (published 2018)
Changes are numbered by the printed parent chain. Numbers in names are those of the source. Like-named read-outs stand apart in the source and are kept apart here. Values belong to the binder of their own block, whether it stands above or below them.

Assays:
[1] = target: T1, FcgRIIb extracellular domain with C-terminal His tag (human, UniProt P31994 43-217); assay: SPR (Biacore), antibody captured on chip, FcγR extracellular domain as analyte, kinetic analysis
T1 construct: extracellular domain; also called FcγRIIb; not shown: His tag attached to the C terminus
T1 sequence (looked up): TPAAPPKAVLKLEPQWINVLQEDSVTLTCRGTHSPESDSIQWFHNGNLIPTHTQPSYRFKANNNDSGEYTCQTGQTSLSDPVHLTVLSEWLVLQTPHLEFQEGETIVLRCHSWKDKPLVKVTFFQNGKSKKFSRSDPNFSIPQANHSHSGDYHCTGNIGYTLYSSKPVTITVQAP
Method: (§1) Analysis of interaction between obj ective antibody and the FcγR was carried out using Biacore T100 (GE Healthcare), Biacore T200, Biacore A100, and Biacore 4000. HBS-EP+ (GE Healthcare) was used as the running buffer, and the measurement temperature was set to 25° C. Chips produced by immobilizing the antigen peptide by the amine coupling method to a Series S sensor Chip CM5 (GE Healthcare), chips produced by allowing preliminarily biotinylated antigen peptides to interact with and immobilize onto a Series S Sensor Chip SA (certified) (GE Healthcare), chips produced by immobilizing Protein L (ACTIGEN, BioVision) to Series S Sencor Chip CM5 (GE Healthcare), or chips produced by immobilizing Protein A/G (Thermo Scientific) to Series S Sencor Chip CM5 (GE Healthcare) were used. Antibodies of interest were captured onto these chips, and allowed to interact to each FcγR diluted with running buffer. To regenerate and repeatedly use the chip, the antibodies captured onto the chip were washed off by reacting 10 mM glycine-HCl, pH 1.5.

[2] = target: T2, FcgRIIIa V extracellular domain with C-terminal His tag (human, UniProt P08637 17-208); assay: as above
T2 construct: extracellular domain; also called FcγRIIIa V; FcγRIIIa (V158); not shown: His tag attached to the C terminus
T2 sequence (P08637 17-208 F176V): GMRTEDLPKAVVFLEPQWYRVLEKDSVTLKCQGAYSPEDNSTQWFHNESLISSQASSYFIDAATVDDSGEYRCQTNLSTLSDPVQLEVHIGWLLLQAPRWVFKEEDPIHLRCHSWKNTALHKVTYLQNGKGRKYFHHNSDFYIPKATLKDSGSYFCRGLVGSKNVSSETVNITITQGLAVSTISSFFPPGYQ
Method: as §1

[3] = target: T3, FcgRIa extracellular domain with C-terminal His tag (human, UniProt P12314 16-292); assay: as above
T3 construct: extracellular domain; Expressed in FreeStyle293 cells; used as analyte in Biacore; also called FcγRIa; FcγRI; not shown: His tag attached to the C terminus
T3 sequence (P12314 16-292): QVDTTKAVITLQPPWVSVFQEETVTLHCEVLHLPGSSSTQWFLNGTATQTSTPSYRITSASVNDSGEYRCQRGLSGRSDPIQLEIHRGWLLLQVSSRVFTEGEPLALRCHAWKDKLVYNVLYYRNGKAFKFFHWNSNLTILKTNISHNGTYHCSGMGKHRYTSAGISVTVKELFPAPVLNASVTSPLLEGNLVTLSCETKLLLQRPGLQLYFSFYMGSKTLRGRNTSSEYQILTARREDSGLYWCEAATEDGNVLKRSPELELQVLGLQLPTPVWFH
Method: as §1

[4] = target: T4, FcgRIIa R extracellular domain with C-terminal His tag (human, UniProt P12318 34-217); assay: as above
T4 construct: extracellular domain; also called FcγRIIa R; FcγRIIa type R; not shown: His tag attached to the C terminus
T4 sequence (looked up): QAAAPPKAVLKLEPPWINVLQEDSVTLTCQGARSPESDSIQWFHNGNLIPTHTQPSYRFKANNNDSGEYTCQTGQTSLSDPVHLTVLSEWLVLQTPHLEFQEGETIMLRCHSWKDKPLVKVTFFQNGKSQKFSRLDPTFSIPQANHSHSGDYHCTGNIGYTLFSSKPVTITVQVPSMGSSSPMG
Method: as §1

[5] = target: T5, FcgRIIa H extracellular domain with C-terminal His tag (human, UniProt P12318 34-217); assay: as above
T5 construct: extracellular domain; also called FcγRIIa H; FcγRIIa type H; not shown: His tag attached to the C terminus
T5 sequence (looked up): T4 sequence (looked up) with R134H
Method: as §1

[6] = target: T6, FcgRIIIa F extracellular domain with C-terminal His tag (human, UniProt P08637 17-208); assay: as above
T6 construct: extracellular domain; also called FcγRIIIa F; FcγRIIIa (F158); not shown: His tag attached to the C terminus
T6 sequence (P08637 17-208): as the sequence (P08637 17-208 F176V) above, with V160F counted along it
Method: as §1

FcgRIIa R [7] = target: T7, FcgRIIa R (human, UniProt P12318 34-217); assay: SPR (Biacore), antibody captured on chip, FcgR extracellular domain as analyte
T7 construct: extracellular domain; also called FcγRIIa R; FcγRIIa type R; not shown: His tag attached to the C terminus
T7 sequence (looked up): T4 sequence (looked up)
Method: as §1

FcgRIIIa F [8] = target: T8, FcgRIIIa F (human, UniProt P08637 17-208); assay: as above
T8 construct: extracellular domain; also called FcγRIIIa F; not shown: His tag attached to the C terminus
T8 sequence (P08637 17-208): as the sequence (P08637 17-208 F176V) above, with V160F counted along it
Method: as §1

FcgRIIIa V [9] = target: T9, FcgRIIIa V (human, UniProt P08637 17-208); assay: as above
T9 construct: extracellular domain; also called FcγRIIIa V; not shown: His tag attached to the C terminus
T9 sequence (P08637 17-208 F176V limits assumed): as the sequence (P08637 17-208 F176V) above
Method: as §1

FcgRIIb [10] = target: T10, FcgRIIb (human, UniProt P31994 43-217); assay: as above
T10 construct: extracellular domain; Expressed in FreeStyle293 cells and purified; used as analyte in Biacore; also called FcγRIIb; CD32B; not shown: His tag attached to the C terminus
T10 sequence (looked up): T1 sequence (looked up)
Method: as §1

FcgRIIa H [11] = target: T11, FcgRIIa H (human, UniProt P12318 34-217); assay: as above
T11 construct: extracellular domain; also called FcγRIIa H; FcγRIIa type H; not shown: His tag attached to the C terminus
T11 sequence (looked up): T4 sequence (looked up) with R134H
Method: as §1

FcgRIa [12] = target: T12, FcgRIa (human, UniProt P12314 16-292); assay: as above
T12 construct: extracellular domain; Expressed in FreeStyle293 cells and purified; used as analyte in Biacore; also called FcγRIa; FcγRI; not shown: His tag attached to the C terminus
T12 sequence (P12314 16-292): as the sequence (P12314 16-292) above
Method: as §1

FcgRIIa R [13] = target: T7, FcgRIIa R; assay: as above; remark: listed apart in the source
Method: (§2) Specifically, H240-Kn120 (SEQ ID NO: 99) resulting from introduction of S239M into H240-Kn067 and H240-Kn126 (SEQ ID NO: 100) resulting from introduction of Y235Q into H240-Kn120 were prepared according to the method described in Reference Example 1. […] Those described above were assayed for the binding to each FcgR according to the method described in Reference Example 8.
as §1

FcgRIIIa F [14] = target: T8, FcgRIIIa F; assay: as above; remark: listed apart in the source
Method: as §2, §1

FcgRIIIa V [15] = target: T9, FcgRIIIa V; assay: as above; remark: listed apart in the source
Method: as §2, §1

FcgRIIb [16] = target: T10, FcgRIIb; assay: as above; remark: listed apart in the source
Method: as §2, §1

FcgRIIa H [17] = target: T11, FcgRIIa H; assay: as above; remark: listed apart in the source
Method: as §2, §1

FcgRIa [18] = target: T12, FcgRIa; assay: as above; remark: listed apart in the source
Method: as §2, §1

FcgRIIa R [19] = target: T7, FcgRIIa R; assay: as above; remark: listed apart in the source
Method: (§3) H240-Kn113 (SEQ ID NO: 92) resulting from introduction of Y234E and Y235N into H240-Kn072, H240-Kn115 (SEQ ID NO: 93) resulting from introduction of S239M into H240-Kn072, and H240-Kn125 (SEQ ID NO: 94) resulting from introduction of Y235Q and S239M into H240-Kn072 were prepared according to the method described in Reference Example 1.
as §1

FcgRIIIa F [20] = target: T8, FcgRIIIa F; assay: as above; remark: listed apart in the source
Method: as §3, §1

FcgRIIIa V [21] = target: T9, FcgRIIIa V; assay: as above; remark: listed apart in the source
Method: as §3, §1

FcgRIIb [22] = target: T10, FcgRIIb; assay: as above; remark: listed apart in the source
Method: as §3, §1

FcgRIIa H [23] = target: T11, FcgRIIa H; assay: as above; remark: listed apart in the source
Method: as §3, §1

FcgRIa [24] = target: T12, FcgRIa; assay: as above; remark: listed apart in the source
Method: as §3, §1

- Kd [1]: 2600 nM
- Kd [2]: 6.9 nM
- Kd [3]: 0.43 nM
- Kd [4]: 490 nM
- Kd [5]: 780 nM
- Kd [6]: 78 nM
B1: H240-afucosyl_G1d/L73-k0 (antibody, human IgG1, kappa)
heavy: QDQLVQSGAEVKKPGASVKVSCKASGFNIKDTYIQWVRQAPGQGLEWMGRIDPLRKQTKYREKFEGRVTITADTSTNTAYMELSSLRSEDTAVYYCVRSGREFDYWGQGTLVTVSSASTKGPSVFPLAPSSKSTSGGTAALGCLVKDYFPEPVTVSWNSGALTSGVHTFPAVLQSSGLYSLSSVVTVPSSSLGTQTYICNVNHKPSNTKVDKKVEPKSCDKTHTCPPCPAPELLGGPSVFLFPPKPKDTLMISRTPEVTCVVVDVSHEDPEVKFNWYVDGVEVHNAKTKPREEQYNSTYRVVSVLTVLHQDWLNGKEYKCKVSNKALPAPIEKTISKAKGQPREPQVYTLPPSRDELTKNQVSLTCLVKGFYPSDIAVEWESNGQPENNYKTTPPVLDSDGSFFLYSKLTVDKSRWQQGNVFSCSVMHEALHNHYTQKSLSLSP
light: DIQMTQSPSSLSASVGDRVTITCRASQDIHKYIAWYQQKPGQAPRLLIQYTSTLQPGVPSRFSGSGSGTDYTFTISSLQPEDIATYYCLQYEQLRTFGGGTKVEIKRTVAAPSVFIFPPSDEQLKSGTASVVCLLNNFYPREAKVQWKVDNALQSGNSQESVTEQDSKDSTYSLSSTLTLSKADYEKHKVYACEVTHQGLSSPVTKSFNRGEC
modifications: fucose removed from the sugar chain (afucosylated)
notes: also called afucosylated antibody

- Kd (FcgRIIa R [7]): 350 nM
- Kd (FcgRIIIa F [8]): 5.1 nM
- Kd (FcgRIIIa V [9]): 1.8 nM
- Kd (FcgRIIb [10]): 1200 nM
- Kd (FcgRIIa H [11]): 280 nM
- Kd (FcgRIa [12]): 0.14 nM
B2: H240-Kn061/H240-Hl071/L73-k0 (antibody, human IgG1, kappa)
heavy 1: QDQLVQSGAEVKKPGASVKVSCKASGFNIKDTYIQWVRQAPGQGLEWMGRIDPLRKQTKYREKFEGRVTITADTSTNTAYMELSSLRSEDTAVYYCVRSGREFDYWGQGTLVTVSSASTKGPSVFPLAPSSKSTSGGTAALGCLVKDYFPEPVTVSWNSGALTSGVHTFPAVLQSSGLYSLSSVVTVPSSSLGTQTYICNVNHKPSNTKVDKKVEPKSCDKTHTCPPCPAPEYYWGPSVFLFPPKPKDTLMISRTPEVTCVVVDVSDEDPEVKFNWYVDGVEVHNAKTKPREEQYNATYRVVSVLTVLHQDWLNGKEYKCKVSNKALPAPIEKTISKAKGQPREPQVCTLPPSRDELTKNQVSLWCLVKGFYPSDIAVEWESNGQPENNYKTTPPVLDSDGSFFLYSKLTVDKSRWQQGNVFSCSVMHEALHNHYTQKSLSLSP
heavy 2: QDQLVQSGAEVKKPGASVKVSCKASGFNIKDTYIQWVRQAPGQGLEWMGRIDPLRKQTKYREKFEGRVTITADTSTNTAYMELSSLRSEDTAVYYCVRSGREFDYWGQGTLVTVSSASTKGPSVFPLAPSSKSTSGGTAALGCLVKDYFPEPVTVSWNSGALTSGVHTFPAVLQSSGLYSLSSVVTVPSSSLGTQTYICNVNHKPSNTKVDKKVEPKSCDKTHTCPPCPAPELLGGPSVFLFPPKPKDTLMISRTPEVTCVVVDVSHEDPEVKFNWYVDGVEVHNAKTKPREEQYNSTYRVVSVLTVLHQDWLNGKEYKCKVSNDALPMPIEETISKAKGQPREPQVYTLPPSRCELTKNQVSLSCAVKGFYPSDIAVEWESNGQPENNYKTTPPVLDSDGSFFLVSKLTVDKSRWQQGNVFSCSVMHEALHNHYTQKSLSLSP
light: B1 light
notes: Heterodimerized anti-EREG IgG1: L234Y/L235Y/G236W/H268D/S298A in Kn061, K326D/A330M/K334E in Hl071

- Kd (FcgRIIa R [7]): 1000 nM
- Kd (FcgRIIIa F [8]): 2600 nM
- Kd (FcgRIIIa V [9]): 390 nM
- Kd (FcgRIIb [10]): 4200 nM
- Kd (FcgRIIa H [11]): 930 nM
- Kd (FcgRIa [12]): 0.25 nM
- Kd (FcgRIIa R [13]): 1000 nM
- Kd (FcgRIIIa F [14]): 2600 nM
- Kd (FcgRIIIa V [15]): 390 nM
- Kd (FcgRIIb [16]): 4200 nM
- Kd (FcgRIIa H [17]): 930 nM
- Kd (FcgRIa [18]): 0.25 nM
- Kd (FcgRIIa R [19]): 1000 nM
- Kd (FcgRIIIa F [20]): 2600 nM
- Kd (FcgRIIIa V [21]): 390 nM
- Kd (FcgRIIb [22]): 4200 nM
- Kd (FcgRIIa H [23]): 930 nM
- Kd (FcgRIa [24]): 0.25 nM
B3: H240-Kn033/H240-Hl033/L73-k0 (antibody, human IgG1, kappa)
heavy 1: not shown
heavy 2: not shown
light: B1 light
notes: Anti-epiregulin (EREG) IgG1 control with knobs-into-holes alterations only (Y349C/T366W in the knob chain; D356C/T366S/L368A/Y407V in the hole chain); also called H240-Kn033/H240-HI033/L73-k0

- Kd (FcgRIIa R [7]): 710 nM
- Kd (FcgRIIIa F [8]): 2.6 nM
- Kd (FcgRIIIa V [9]): 1 nM
- Kd (FcgRIIb [10]): 5700 nM
- Kd (FcgRIIa H [11]): 130 nM
- Kd (FcgRIa [12]): 0.1 nM
- Kd (FcgRIIa R [19]): 710 nM
- Kd (FcgRIIIa F [20]): 2.6 nM
- Kd (FcgRIIIa V [21]): 1 nM
- Kd (FcgRIIb [22]): 5700 nM
- Kd (FcgRIIa H [23]): 130 nM
- Kd (FcgRIa [24]): 0.1 nM
B4: H240-Kn072/H240-Hl076/L73-k0 (antibody, human IgG1, kappa)
heavy 1: B2 heavy 1 with D269E
heavy 2: B2 heavy 2 with D269E
light: B1 light
notes: Heterodimerized anti-EREG IgG1: D270E introduced into both H chains of H240-Kn061/H240-Hl071/L73-k0
